The text below walks through data of patent US20130137856A1, “PROTEIN BINDING DOMAINS STABILIZING FUNCTIONAL CONFORMATIONAL STATES OF GPCRS AND USES THEREOF” (priority 2010, published 2013).

Entries after “also recorded” stand apart in the source; their conditions may differ.

Data set [1] has as its target T1, β2AR (Homo sapiens, UniProt P07550). Briefly: Monobromobimane (mBBr) fluorescence of labeled purified β2AR. The settings on record: 1 μM nanobody plus full agonist isoproterenol. In kind it is biochemical. The text has this: To investigate the effect of nanobodies on movement of the cytoplasmic domain of TM6 we labeled purified β2AR at C265 with monobromobimane (mBB-β2AR). […] In mBB-β2AR, the addition of agonist together with G protein results in larger fluorescent changes than either agonist or G protein alone. This is compatible with the cooperative interactions observed in agonist competition binding assays (Yao et al. 2009).
Purified β2AR was reacted with 1:1 equivalent of monobromobimane (mBBr, Invitrogen) in 100 mM NaCl, 20 mM HEPES, pH 7.5, 0.1% dodecyl maltoside and incubated overnight on ice in the dark. The fluorophore-labeled receptor was purified right before use by gel filtration on a desalting column equilibrated with the same buffer. […] All experiments were performed at 25° C. […] To determine the effect of nanobodies and ligands, three individual labeled protein samples were incubated with 1 μM nanobody or 10 μM Isoproterenol or both. Emission spectra of the samples were taken after 1 hour incubation.

Data set [2] deals with β2AR. Briefly: Size exclusion chromatography of nanobody with purified detergent-solubilized β2AR. Conditions: 20 μM β2AR bound to an agonist, 40 μM nanobody. Type of data set: binding, human. As for the experimental part:
The mixture was then analyzed by Size Exclusion Chromatography (SEC), which separates protein on the basis of size. Seven of the nanobodies bound to purified β2AR and migrated as a complex on SEC only in the presence of agonist and not an inverse agonist (an example is shown in FIG. 1, Panel a, FIG. 3 and FIG. 4).
Agonist selective nanobodies were identified by size exclusion chromatography following incubation of 20 μM agonist or inverse agonist- (carazolol-) bound β2AR-365N for one hour at RT in the absence or presence of 40 μM nanobody.

For data set [3], the target named is T1, β2AR. Briefly: [3H]-DHA competition binding on Sf9 insect cell membranes expressing β2AR, with or without nanobody. Also noted: recombinant β2AR truncated at Gly365 (β2AR-365); made in house; host or cells: Sf9 insect cells (membranes). Conditions: agonist competition binding with versus without nanobody. An excerpt:
Panel b: Dose-response competition binding experiments on Sf9 insect cell membranes expressing β2AR.

B1: NB72: β2AR-specific nanobody, probably CA2772, SEQ ID NO:24; CA3472 carries the same short notation (protein, listed as Lama glama)
VHH: QVQLQESGGGLVQPGGSLRLSCAASGFTFSGYAMNWVRQAPGKGPEWVSAINSGGGSTSYADSVKGRFTISRDNAKNTVYLQMNSLKPEDTAVYYCHARDIYSDFLGQYEYDYWGQGTQVTVSS
Regarding B1, in the data set with β2AR [1] (listed as 72), the “mBBr fluorescence change of isoproterenol-bound β2AR with nanobody (active state)” value was “Comparable results; also recorded: stabilize a more active state”. The “Complex formation with agonist-bound β2AR on SEC” value in the data set on β2AR [2] was “complex formation”. Besides, in the data set with β2AR [3], the “Enhancement of β2AR affinity for the agonist isoproterenol in the presence of the nanobody” value (“Enhancement of β2AR affinity” below) is on record as “two- to thirty-fold”.

B2: NB67: β2AR-specific nanobody, SEQ ID NO:20 (protein, listed as Lama glama)
VHH: QVQLQESGGGLVQAGGSLRLSCAASGTISSFIAMGWYRQSPGKQRELVAGITSGGETNYEDSVKGRFTISRDNAKNTLYLQMNTLKPEDTAVYYCNAQVFADIFNLINYWGQGTQVTVSS
Take B2: the “mBBr fluorescence change of isoproterenol-bound β2AR with nanobody (active state)” value in the data set with β2AR [1] (listed as 67) is listed as “Comparable results; also recorded: stabilize a more active state”. The “Complex formation with agonist-bound β2AR on SEC” value in the data set on β2AR [2] is “complex formation”. The “Enhancement of β2AR affinity” value in the data set with β2AR [3] is on record as “two- to thirty-fold”.

B3: NB69: β2AR-specific nanobody, SEQ ID NO:26 (protein, listed as Lama glama)
VHH: QVQLQESGGGLVQPGGSLRLSCAASGSIFSINAMGWYRQAPGKQRDLVASITSGGSTNYADSVKGRFTISRDNAKNTVYLQMNSLKPEDTAVYYCNVQGTGPSSWLFNEYDYWGQGTQVTVSS
Take B3: the “mBBr fluorescence change of isoproterenol-bound β2AR with nanobody (active state)” value in the data set with β2AR [1] (listed as 69) was “Comparable results; also recorded: stabilize a more active state”. The “Complex formation with agonist-bound β2AR on SEC” value with β2AR [2] is given as “complex formation”. In addition, the “Enhancement of β2AR affinity” value with β2AR [3] was “two- to thirty-fold”.

B4: NB71: β2AR-specific nanobody, SEQ ID NO:25 (protein, listed as Lama glama)
VHH: QVQLQESGGGLVQPGGSLRLSCAASGFAFSSYELRWYRQAPGKQHELVAGITTGGNTYYADSVKGRFTISRDNAKNTVYLQMSNLRPEDTAVYACNANWDLLSDYWGQGTQVTVSS
In the case of B4, the “mBBr fluorescence change of isoproterenol-bound β2AR with nanobody (active state)” value in the data set with β2AR [1] (listed as 71) is listed as “Comparable results; also recorded: stabilize a more active state”. The “Complex formation with agonist-bound β2AR on SEC” value in the data set on β2AR [2] is given as “complex formation”. Moreover, in the data set with β2AR [3], the “Enhancement of β2AR affinity” value was “two- to thirty-fold”.

B5: NB65: β2AR-specific nanobody, SEQ ID NO:5 (protein, listed as Lama glama)
VHH: QVQLQESGGGLVQAGGSLRLSCAASGSIFSINTMGWYRQAPGKQRELVAAIHSGGSTNYADSVRGRFTISRDNAKNTVYLQMNSLKPEDTAVYYCNVKDYGAVLYEYDYWGQGTQVTVSS
On to B5, for which the “mBBr fluorescence change of isoproterenol-bound β2AR with nanobody (active state)” value in the data set with β2AR [1] (listed as 65) is listed as “Comparable results; also recorded: stabilize a more active state”. For the same molecule, the “Complex formation with agonist-bound β2AR on SEC” value with β2AR [2] was “complex formation”. In addition, the “Enhancement of β2AR affinity” value in the data set with β2AR [3] was “two- to thirty-fold”.

B6: NB84: β2AR-specific nanobody, probably CA2784, SEQ ID NO:29; CA3484 carries the same short notation (protein, listed as Lama glama)
VHH: QVQLQESGGGLVQAGGSLRLSCAASGSIFSINAMGWYRQAPGKQRELVAAITSGGSTTYADSVKGRFTVSRDNAKNTVYLQMIRLKPEDTAVYYCHVRDIYSDFLGQYEYDYWGQGTQVTVSS
With B6, in the data set with β2AR [1] (listed as 84), the “mBBr fluorescence change of isoproterenol-bound β2AR with nanobody (active state)” value was “Comparable results; also recorded: stabilize a more active state”. In addition, the “Complex formation with agonist-bound β2AR on SEC” value in the data set on β2AR [2] was “complex formation”. For the same molecule, the “Enhancement of β2AR affinity” value with β2AR [3] is on record as “two- to thirty-fold”.
